To fix the notation:
T1: Myo5 SH3 (MYO5_YEAST), Q04439
T1 chain: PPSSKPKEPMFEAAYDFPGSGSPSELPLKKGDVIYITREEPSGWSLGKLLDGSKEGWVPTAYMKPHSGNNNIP

This assay has as its target T1, Myo5 SH3 (MYO5_YEAST), Q04439. As to the kind of experiment: SPOT array.
LALLMTDPDAPSRT [YLR179C 73-86] had a normalised SPOT signal, Boehringer light units (BLU); mean over the file's lines of this peptide of 178.
Then KFLIHNEPIDPNDR [YIL009W 198-211], with 122; and KAPYLVQPNVPEKH [YHL002W 140-153], with 131.
Then LAIRLSWPPAPVTL [YDL151C 103-116], with 155.
In the case of KWTIMPHPNRPNAA [YOL008W 138-151], the normalised SPOT signal, Boehringer light units (BLU); mean over the file's lines of this peptide was determined as 429.
Then KAIVWRLPKMPKIK [YFL040W 5-18], with 515; and IPVGYVTPKFPSLY [YPR153W 14-27], with 21.6; and KPSLWEAPQNPPYS [YML035C 587-600], with 152.
The molecule KELNLTGPKVPEDI [YHR027C 344-357] displayed a normalised SPOT signal, Boehringer light units (BLU); mean over the file's lines of this peptide of 102.
KPPVYRLPPLPRLK [YDL045W-A 4-17]: the normalised SPOT signal, Boehringer light units (BLU); mean over the file's lines of this peptide was 2310.
On to KFTDMLDPEKPNVI [YBR033W 385-398], for which the normalised SPOT signal, Boehringer light units (BLU); mean over the file's lines of this peptide stood at 262.
The molecule KWKSLFPPFFPSDI [YCL016C 283-296] yielded a normalised SPOT signal, Boehringer light units (BLU); mean over the file's lines of this peptide of 242.
Then KEQNWKHPLLPLLK [YDL202W 121-134], with 321; and KLGRFTNPQQPRED [YPL075W 704-717], with 227.
Then KELPFTGPSIPFEN [YPL216W 339-352], with 339; and KLEDLNEPLSPWIS [YPL159C 152-165], with 71.1.
Then KLPQLPPPPPPPPP [YIL159W 764-777], with 54100; and KLPKLNVPLNPKGK [YAR009C 933-946], with 305; and KLNSLQIPHLPPSV [YHR105W 144-157], with 350.
Consider KPLNLSKPISPPPS [YJL157C 78-91], for which the normalised SPOT signal, Boehringer light units (BLU); mean over the file's lines of this peptide stood at 254.
For the molecule KLPDLKLPPSPVPS [YML083C 113-126], the normalised SPOT signal, Boehringer light units (BLU); mean over the file's lines of this peptide turned out to be 231.
Then KPLKFLRPTYPDLS [YHR027C 87-100], with 149; and KLKSLNLPQLPPPK [YDR266C 567-580], with 675; and KLVKFKLPFLPISD [YGR150C 548-561], with 974.
Regarding KPPSYPSPAQPPKS [YER114C 444-457], the normalised SPOT signal, Boehringer light units (BLU); mean over the file's lines of this peptide is 11900.
Then KASSMPAPPPPPPP [YLR337C 391-404], with 10500; and KLALHQYPNFPSEG [YML022W 11-24], with 130; and KPPSYPSPVQPPQS [YBL085W 399-412], with 16500.
Then LEDALHVPTNPEIL [YDR416W 508-521], with 191.
Then KPSVMKLPPSPKQP [YFR030W 871-884], with 380.
KPKMLPIPSKPTLF [YPL243W 531-544] returned a normalised SPOT signal, Boehringer light units (BLU); mean over the file's lines of this peptide of 1360.
Then KPMLHNVPHDPSLP [YDR231C 158-171], with 413; and LAKDLIVPRRPEWN [YGL099W 130-143], with 117000.
Then KFVIHNEPIDPSDK [YMR246W 198-211], with 46.7.
Then KFRQMFKPLAPNTR [YLR072W 165-178], with 1220; and KPAVLHYPPIPASA [YAL031C 680-693], with 183; and LEFSHYAPTAPHVQ [YLR069C 734-747], with 103.
Regarding KEVDLTRPSAPSEP [YLR181C 258-271], the normalised SPOT signal, Boehringer light units (BLU); mean over the file's lines of this peptide came to 132.
Then KLFVLLPPIDPKDG [YNL132W 563-576], with 258; and KFTDMQVPKGPVSP [YOR264W 96-109], with 197.
Then KESKFGTPEKPLSD [YBL052C 444-457], with 250; and KAGSFGAPSSPTSG [YPL179W 199-212], with 124.
Molecule KFFKHLYPAIPILD [YLR256W 487-500] returned a normalised SPOT signal, Boehringer light units (BLU); mean over the file's lines of this peptide of 217.
The molecule KFPLMDKPSIPTLR [YNR011C 604-617] gave a normalised SPOT signal, Boehringer light units (BLU); mean over the file's lines of this peptide of 432.
Then LASPFHDPILPRRT [YHL028W 522-535], with 288.
Then KLDPLGEPFDPNKH [YOR232W 171-184], with 276; and KPSGYYGPNSPLKL [YKL108W 199-212], with 159.
In turn, KLAPLNSPSLPTTN [YOL107W 236-249] displayed a normalised SPOT signal, Boehringer light units (BLU); mean over the file's lines of this peptide of 212.
Molecule KEFRFIFPLQPLFI [YGL142C 392-405] had a normalised SPOT signal, Boehringer light units (BLU); mean over the file's lines of this peptide of 750.
Then KELIYKQPSGPGLV [YER045C 32-45], with 79.3.
As to KELLLIPPGFPTKN [YCL010C 181-194], the normalised SPOT signal, Boehringer light units (BLU); mean over the file's lines of this peptide is 123.
Take KAVHLYFPILPHSG [YCR034W 255-268]: the normalised SPOT signal, Boehringer light units (BLU); mean over the file's lines of this peptide worked out at 125.
Molecule KLWDLSKPSKPLKE [YAR003W 97-110] yielded a normalised SPOT signal, Boehringer light units (BLU); mean over the file's lines of this peptide of 233.
Then KPKVLFHPHWPLYI [YJL105W 401-414], with 196.

The values above are taken from paper PMC314469, “Protein Interaction Networks by Proteome Peptide Scanning” (PLoS Biology, 2004).
